Laboratory results: paper PMC3689302

Biological target: Bh-RNase HC (RNase HI catalytic domain, D132N) (Bacillus halodurans (genomic DNA from …, UniProt Q9KEI9 58-196, D132N))
Test: X-ray crystallography

B1: Dickerson-Drew dodecamer (DDD) (dsDNA)
DNA 1: CGCGAATTCGCG
DNA 2: CGCGAATTCGCG
Q: Does B1 bind?
A: Result: binds
